From IntAct's records for PubMed 17113272

B1: Armadillo segment polarity protein (Drosophila melanogaster (Fruit fly)), P18824 (parent)
chain: MSYMPAQNRTMSHNNQYNPPDLPPMVSAKEQTLMWQQNSYLGDSGIHSGAVTQVPSLSGKEDEEMEGDPLMFDLDTGFPQNFTQDQVDDMNQQLSQTRSQRVRAAMFPETLEEGIEIPSTQFDPQQPTAVQRLSEPSQMLKHAVVNLINYQDDAELATRAIPELIKLLNDEDQVVVSQAAMMVHQLSKKEASRHAIMNSPQMVAALVRAISNSNDLESTKAAVGTLHNLSHHRQGLLAIFKSGGIPALVKLLSSPVESVLFYAITTLHNLLLHQDGSKMAVRLAGGLQKMVTLLQRNNVKFLAIVTDCLQILAYGNQESKLIILASGGPNELVRIMRSYDYEKLLWTTSRVLKVLSVCSSNKPAIVDAGGMQALAMHLGNMSPRLVQNCLWTLRNLSDAATKVEGLEALLQSLVQVLGSTDVNVVTCAAGILSNLTCNNQRNKATVCQVGGVDALVRTIINAGDREEITEPAVCALRHLTSRHVDSELAQNAVRLNYGLSVIVKLLHPPSRWPLIKAVIGLIRNLALCPANHAPLREHGAIHHLVRLLMRAFQDTERQRSSIATTGSQQPSAYADGVRMEEIVEGTVGALHILARESHNRALIRQQSVIPIFVRLLFNEIENIQRVAAGVLCELAADKEGAEIIEQEGATGPLTDLLHSRNEGVATYAAAVLFRMSEDKPQDYKKRLSIELTNSLLREDNNIWANADLGMGPDLQDMLGPEEAYEGLYGQGPPSVHSSHGGRAFHQQGYDTLPIDSMQGLEISSPVGGGGAGGAPGNGGAVGGASGGGGNIGAIPPSGAPTSPYSMDMDVGEIDAGALNFDLDAMPTPPNDNNNLAAWYDTDC
partner: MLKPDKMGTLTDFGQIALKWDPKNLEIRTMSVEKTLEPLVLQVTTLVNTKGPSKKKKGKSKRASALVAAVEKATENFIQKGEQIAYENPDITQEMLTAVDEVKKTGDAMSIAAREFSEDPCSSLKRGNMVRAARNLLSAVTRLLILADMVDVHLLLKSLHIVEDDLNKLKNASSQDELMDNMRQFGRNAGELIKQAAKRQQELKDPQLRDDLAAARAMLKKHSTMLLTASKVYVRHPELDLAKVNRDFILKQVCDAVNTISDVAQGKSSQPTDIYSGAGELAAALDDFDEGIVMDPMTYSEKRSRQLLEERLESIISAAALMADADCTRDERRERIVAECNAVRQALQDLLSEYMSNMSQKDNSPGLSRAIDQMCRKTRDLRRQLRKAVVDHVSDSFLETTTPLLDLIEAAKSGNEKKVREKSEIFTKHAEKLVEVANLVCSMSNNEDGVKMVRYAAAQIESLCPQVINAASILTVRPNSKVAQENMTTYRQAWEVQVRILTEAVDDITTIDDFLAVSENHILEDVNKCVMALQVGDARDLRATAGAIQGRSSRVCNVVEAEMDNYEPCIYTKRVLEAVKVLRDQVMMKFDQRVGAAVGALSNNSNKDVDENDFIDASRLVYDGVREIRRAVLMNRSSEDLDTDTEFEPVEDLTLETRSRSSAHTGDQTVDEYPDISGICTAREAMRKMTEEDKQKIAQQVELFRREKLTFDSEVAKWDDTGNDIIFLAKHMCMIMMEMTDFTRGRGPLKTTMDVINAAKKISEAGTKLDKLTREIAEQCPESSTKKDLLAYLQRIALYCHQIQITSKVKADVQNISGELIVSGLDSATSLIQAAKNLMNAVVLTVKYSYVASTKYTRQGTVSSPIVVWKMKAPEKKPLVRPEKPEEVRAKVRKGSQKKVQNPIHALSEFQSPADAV
B2: Armadillo segment polarity protein (Drosophila melanogaster (Fruit fly)), P18824 (parent)
chain: B1 chain
partner: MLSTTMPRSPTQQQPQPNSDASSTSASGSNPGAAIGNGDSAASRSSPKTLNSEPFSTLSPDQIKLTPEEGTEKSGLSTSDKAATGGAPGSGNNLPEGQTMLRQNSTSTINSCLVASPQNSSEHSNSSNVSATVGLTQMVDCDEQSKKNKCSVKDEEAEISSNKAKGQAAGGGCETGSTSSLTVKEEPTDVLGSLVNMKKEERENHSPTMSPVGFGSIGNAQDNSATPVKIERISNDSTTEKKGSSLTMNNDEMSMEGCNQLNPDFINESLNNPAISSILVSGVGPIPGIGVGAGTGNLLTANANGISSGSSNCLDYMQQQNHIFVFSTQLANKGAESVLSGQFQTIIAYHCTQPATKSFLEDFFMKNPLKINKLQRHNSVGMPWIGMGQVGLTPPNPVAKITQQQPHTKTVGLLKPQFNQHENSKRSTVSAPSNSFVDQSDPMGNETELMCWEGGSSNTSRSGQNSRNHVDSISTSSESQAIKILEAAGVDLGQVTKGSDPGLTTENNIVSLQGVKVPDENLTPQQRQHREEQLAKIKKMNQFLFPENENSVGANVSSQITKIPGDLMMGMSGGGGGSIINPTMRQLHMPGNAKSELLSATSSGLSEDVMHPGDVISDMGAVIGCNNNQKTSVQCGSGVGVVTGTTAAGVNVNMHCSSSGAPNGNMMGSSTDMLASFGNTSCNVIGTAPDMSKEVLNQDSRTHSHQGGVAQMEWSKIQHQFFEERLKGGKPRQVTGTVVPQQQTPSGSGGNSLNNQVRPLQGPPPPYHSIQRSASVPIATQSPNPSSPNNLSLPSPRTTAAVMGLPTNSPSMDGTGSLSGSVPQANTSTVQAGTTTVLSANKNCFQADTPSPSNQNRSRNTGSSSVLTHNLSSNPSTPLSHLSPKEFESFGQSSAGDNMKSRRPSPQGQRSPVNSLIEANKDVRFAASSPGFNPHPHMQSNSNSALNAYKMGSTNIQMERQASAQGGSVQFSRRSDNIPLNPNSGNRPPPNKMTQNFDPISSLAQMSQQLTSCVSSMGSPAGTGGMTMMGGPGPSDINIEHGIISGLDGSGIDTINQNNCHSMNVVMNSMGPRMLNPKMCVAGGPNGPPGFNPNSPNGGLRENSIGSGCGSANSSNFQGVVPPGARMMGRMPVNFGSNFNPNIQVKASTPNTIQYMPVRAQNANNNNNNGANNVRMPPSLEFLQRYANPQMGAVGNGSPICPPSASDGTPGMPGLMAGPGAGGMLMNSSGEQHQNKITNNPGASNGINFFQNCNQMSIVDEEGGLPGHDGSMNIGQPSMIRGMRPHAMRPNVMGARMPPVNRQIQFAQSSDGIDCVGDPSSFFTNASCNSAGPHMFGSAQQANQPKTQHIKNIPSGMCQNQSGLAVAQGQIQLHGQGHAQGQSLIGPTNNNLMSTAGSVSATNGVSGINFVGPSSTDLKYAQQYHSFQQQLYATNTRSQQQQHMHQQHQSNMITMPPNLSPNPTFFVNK
B3: Catenin beta-1 (Mus musculus), Q02248 (parent)
chain: MATQADLMELDMAMEPDRKAAVSHWQQQSYLDSGIHSGATTTAPSLSGKGNPEEEDVDTSQVLYEWEQGFSQSFTQEQVADIDGQYAMTRAQRVRAAMFPETLDEGMQIPSTQFDAAHPTNVQRLAEPSQMLKHAVVNLINYQDDAELATRAIPELTKLLNDEDQVVVNKAAVMVHQLSKKEASRHAIMRSPQMVSAIVRTMQNTNDVETARCTAGTLHNLSHHREGLLAIFKSGGIPALVKMLGSPVDSVLFYAITTLHNLLLHQEGAKMAVRLAGGLQKMVALLNKTNVKFLAITTDCLQILAYGNQESKLIILASGGPQALVNIMRTYTYEKLLWTTSRVLKVLSVCSSNKPAIVEAGGMQALGLHLTDPSQRLVQNCLWTLRNLSDAATKQEGMEGLLGTLVQLLGSDDINVVTCAAGILSNLTCNNYKNKMMVCQVGGIEALVRTVLRAGDREDITEPAICALRHLTSRHQEAEMAQNAVRLHYGLPVVVKLLHPPSHWPLIKATVGLIRNLALCPANHAPLREQGAIPRLVQLLVRAHQDTQRRTSMGGTQQQFVEGVRMEEIVEGCTGALHILARDVHNRIVIRGLNTIPLFVQLLYSPIENIQRVAAGVLCELAQDKEAAEAIEAEGATAPLTELLHSRNEGVATYAAAVLFRMSEDKPQDYKKRLSVELTSSLFRTEPMAWNETADLGLDIGAQGEALGYRQDDPSYRSFHSGGYGQDALGMDPMMEHEMGGHHPGADYPVDGLPDLGHAQDLMDGLPPGDSNQLAWFDTDL
partner: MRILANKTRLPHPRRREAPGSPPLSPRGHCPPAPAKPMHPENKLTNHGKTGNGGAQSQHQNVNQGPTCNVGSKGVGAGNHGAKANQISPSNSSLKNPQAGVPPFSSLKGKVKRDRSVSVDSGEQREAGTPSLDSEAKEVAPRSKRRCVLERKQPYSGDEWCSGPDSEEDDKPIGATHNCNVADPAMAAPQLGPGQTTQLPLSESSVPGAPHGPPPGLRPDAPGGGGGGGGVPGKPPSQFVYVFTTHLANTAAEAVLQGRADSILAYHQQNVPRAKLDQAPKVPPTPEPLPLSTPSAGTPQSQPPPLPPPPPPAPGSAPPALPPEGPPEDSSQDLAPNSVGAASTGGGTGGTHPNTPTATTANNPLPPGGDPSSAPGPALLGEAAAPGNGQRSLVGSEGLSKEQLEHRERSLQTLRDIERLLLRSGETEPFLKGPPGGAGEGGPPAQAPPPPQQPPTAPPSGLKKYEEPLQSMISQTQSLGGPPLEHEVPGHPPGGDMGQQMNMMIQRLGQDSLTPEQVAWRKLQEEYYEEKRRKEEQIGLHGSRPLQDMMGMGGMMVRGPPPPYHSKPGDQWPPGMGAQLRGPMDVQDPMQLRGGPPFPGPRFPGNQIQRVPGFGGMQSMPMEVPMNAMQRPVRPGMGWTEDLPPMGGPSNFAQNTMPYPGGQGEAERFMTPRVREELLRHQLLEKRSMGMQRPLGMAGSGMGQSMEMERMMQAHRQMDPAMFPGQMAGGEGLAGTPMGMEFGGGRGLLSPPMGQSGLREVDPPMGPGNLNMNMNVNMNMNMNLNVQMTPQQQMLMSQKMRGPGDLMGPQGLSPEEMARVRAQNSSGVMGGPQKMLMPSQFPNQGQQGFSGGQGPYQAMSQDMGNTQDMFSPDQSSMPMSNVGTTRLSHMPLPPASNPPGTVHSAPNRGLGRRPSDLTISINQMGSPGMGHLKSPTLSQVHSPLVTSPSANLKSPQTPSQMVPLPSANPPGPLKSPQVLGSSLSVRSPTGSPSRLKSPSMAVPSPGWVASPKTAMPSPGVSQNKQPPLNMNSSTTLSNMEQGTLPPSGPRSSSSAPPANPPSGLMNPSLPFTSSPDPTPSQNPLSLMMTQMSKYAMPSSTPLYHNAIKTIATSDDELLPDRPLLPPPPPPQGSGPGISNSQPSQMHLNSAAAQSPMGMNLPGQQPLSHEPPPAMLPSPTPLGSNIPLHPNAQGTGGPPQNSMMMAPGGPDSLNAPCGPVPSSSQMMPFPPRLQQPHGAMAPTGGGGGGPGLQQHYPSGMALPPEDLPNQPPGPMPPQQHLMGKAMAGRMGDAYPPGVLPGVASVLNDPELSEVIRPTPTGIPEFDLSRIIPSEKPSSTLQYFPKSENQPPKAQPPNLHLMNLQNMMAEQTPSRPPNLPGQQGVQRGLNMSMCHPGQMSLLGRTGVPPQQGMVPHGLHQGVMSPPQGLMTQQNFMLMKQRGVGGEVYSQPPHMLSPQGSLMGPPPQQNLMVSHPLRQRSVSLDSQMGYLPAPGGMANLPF

Variants of: B1
Conditions: with ctna_drome alpha-Cat

Row | Variant | effect of a mutation on the interaction
1 | Y150A | disrupting interaction

Variants of: B2
Conditions: with bcl9_drome lgs

Row | Variant | effect of a mutation on the interaction
2 | D172A | disrupting interaction

Variants of: B3
Conditions: with bcl9l_human BCL9L

Row | Variant | effect of a mutation on the interaction
3 | D164A | disrupting interaction
